Columns and labels:
Experiment in all cases: label-free LC-MS/MS
[1] = biological target: AAV-DJ capsid incorporating VP3 with the ALFAnb inserted at position H631 (AAV-DJ | not stated)
[2] = biological target: AAV-DJ capsid incorporating VP1 with a GFPnb inserted at position H631 (AAV-DJ | not stated)
[3] = biological target: AAV-DJ capsid incorporating VP3 with a GFPnb inserted at position H631 (AAV-DJ | not stated)

| Substance | GFP/capsid (GFP-NLS-ALFA proteins per capsid) [1] | GFP/capsid, Rep1 [1] [GFP/capsid] | GFP/capsid, Rep3 [1] [GFP/capsid] | GFP/capsid, avg [1] [GFP/capsid] | GFP/capsid (GFP-NLS per capsid) [2] | GFP/capsid, Rep1 [2] [GFP/capsid] | GFP/capsid, Rep2 [2] [GFP/capsid] | GFP/capsid, Rep3 [2] [GFP/capsid] | GFP/capsid, avg [2] [GFP/capsid] | GFP/capsid (GFP-NLS per capsid) [3] | GFP/capsid, Rep1 [3] [GFP/capsid] | GFP/capsid, Rep2 [3] [GFP/capsid] | GFP/capsid, Rep3 [3] [GFP/capsid] |
| --- | --- | --- | --- | --- | --- | --- | --- | --- | --- | --- | --- | --- | --- |
| GFP C-terminally tagged with a c-Myc NLS followed by the ALFA tag | 1 to 9 | 8.63 | 0.3 | 3.35 |  |  |  |  |  |  |  |  |  |
| GFP tagged with a c-Myc NLS at the C-terminus |  |  |  |  | 1 to 3 | 0.89 | 2.27 | 0.81 | 1.33 | 3 to 15 | 13.1 | 2.17 | 1.35 |
| green fluorescent protein (GFP) (from UniProt P42212 1-238) (natural protein) |  |  |  |  |  | 0.89 | 0.73 | 0.33 | 0.65 |  |  |  |  |
